Publication PMC9482650, “Quantitative fragmentomics allow affinity mapping of interactomes” (Nature Communications, 2022)

How the values were obtained:
Assay in all cases: holdup assay
Set-up in all cases: key: below the threshold = too weak to quantify, mostly under pKd 3.1 to 4
Conditions in all cases: plain residues with an end cap or a label only (N-terminal biotin on a linker: ado-ado)
APBA3_1, O96018 = target: T1, APBA3_1, O96018
T1 sequence (O96018 389-490, limits assumed, looked up): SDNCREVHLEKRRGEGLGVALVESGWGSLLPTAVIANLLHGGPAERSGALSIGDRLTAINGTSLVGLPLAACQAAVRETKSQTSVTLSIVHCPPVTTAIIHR

CARD11, Q9BXL7 = target: T2, CARD11, Q9BXL7
T2 sequence (Q9BXL7 662-765, limits assumed, looked up): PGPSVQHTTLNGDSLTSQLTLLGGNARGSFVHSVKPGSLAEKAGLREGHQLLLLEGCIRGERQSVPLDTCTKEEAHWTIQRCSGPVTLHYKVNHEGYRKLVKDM

DFNB31_1, Q9P202 = target: T3, DFNB31_1, Q9P202
T3 sequence (Q9P202 135-233, limits assumed, looked up): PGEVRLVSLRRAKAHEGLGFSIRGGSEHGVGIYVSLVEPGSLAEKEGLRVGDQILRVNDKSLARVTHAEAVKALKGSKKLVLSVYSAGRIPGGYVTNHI

DLG2_2, Q15700 = target: DLG2_2, Q15700
DLG4_1, P78352 = target: DLG4_1, P78352
FRMPD2_2, Q68DX3 = target: FRMPD2_2, Q68DX3
GRASP, Q7Z6J2 = target: GRASP, Q7Z6J2
GRID2IP_1, A4D2P6 = target: GRID2IP_1, A4D2P6
GRIP1_3, Q9Y3R0 = target: T4, GRIP1_3, Q9Y3R0
T4 sequence (Q9Y3R0 247-346, limits assumed, looked up): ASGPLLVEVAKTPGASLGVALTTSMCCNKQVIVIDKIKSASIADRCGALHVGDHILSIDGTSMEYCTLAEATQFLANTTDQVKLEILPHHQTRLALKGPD

GRIP2_4, Q9C0E4 = target: GRIP2_4, Q9C0E4
GRIP2_7, Q9C0E4 = target: GRIP2_7, Q9C0E4
HTRA1, Q92743 = target: HTRA1, Q92743
HTRA4, P83105 = target: T5, HTRA4, P83105
T5 sequence (P83105 378-476, limits assumed, looked up): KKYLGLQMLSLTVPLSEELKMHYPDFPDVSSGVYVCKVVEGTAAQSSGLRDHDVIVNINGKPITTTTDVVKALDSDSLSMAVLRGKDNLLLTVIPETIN

Inadl_2, Q8NI35 = target: Inadl_2, Q8NI35
Inadl_6, Q8NI35 = target: Inadl_6, Q8NI35
LDB3, O75112 = target: LDB3, O75112
LIMK2, P53671 = target: LIMK2, P53671
LIN7C, Q9NUP9 = target: T6, LIN7C, Q9NUP9
T6 sequence (Q9NUP9 88-185, limits assumed, looked up): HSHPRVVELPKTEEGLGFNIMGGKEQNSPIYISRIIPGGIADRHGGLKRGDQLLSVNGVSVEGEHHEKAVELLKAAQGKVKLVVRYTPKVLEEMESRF

MAGI2_2, Q86UL8 = target: MAGI2_2, Q86UL8
MAGI2_5, Q86UL8 = target: MAGI2_5, Q86UL8
MAGI3_2, Q5TCQ9 = target: MAGI3_2, Q5TCQ9
NHERF2_2, Q15599 = target: NHERF2_2, Q15599
NHERF3_3, Q5T2W1 = target: T7, NHERF3_3, Q5T2W1
T7 sequence (Q5T2W1 238-333, limits assumed, looked up): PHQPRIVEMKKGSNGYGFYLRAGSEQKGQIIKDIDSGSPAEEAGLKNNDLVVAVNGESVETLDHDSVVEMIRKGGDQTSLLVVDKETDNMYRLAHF

NHERF4_4, Q86UT5 = target: NHERF4_4, Q86UT5
PARD3_3, Q8TEW0 = target: PARD3_3, Q8TEW0
RAPGEF6, Q8TEU7 = target: T8, RAPGEF6, Q8TEU7
T8 sequence (Q8TEU7 525-625, limits assumed, looked up): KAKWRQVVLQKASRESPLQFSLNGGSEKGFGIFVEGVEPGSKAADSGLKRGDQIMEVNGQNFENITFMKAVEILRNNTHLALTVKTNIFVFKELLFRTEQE

SHANK1, Q9Y566 = target: T9, SHANK1, Q9Y566
T9 sequence (Q9Y566 658-767, limits assumed, looked up): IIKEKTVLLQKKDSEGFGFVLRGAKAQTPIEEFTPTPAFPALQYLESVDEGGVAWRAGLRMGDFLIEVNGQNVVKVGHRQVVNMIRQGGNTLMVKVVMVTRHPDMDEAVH

SNX27, Q96L92 = target: SNX27, Q96L92

FRMPD2_2, Q68DX3, sequence (Q68DX3 944-1038): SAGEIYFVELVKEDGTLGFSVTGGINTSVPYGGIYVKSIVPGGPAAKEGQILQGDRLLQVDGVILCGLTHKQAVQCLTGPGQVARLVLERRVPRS
LIMK2, P53671, sequence (P53671 143-248): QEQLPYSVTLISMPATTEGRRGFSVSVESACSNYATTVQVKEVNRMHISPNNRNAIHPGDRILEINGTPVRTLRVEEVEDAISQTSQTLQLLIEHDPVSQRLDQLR
GRIP2_4, Q9C0E4, sequence (Q9C0E4 446-548): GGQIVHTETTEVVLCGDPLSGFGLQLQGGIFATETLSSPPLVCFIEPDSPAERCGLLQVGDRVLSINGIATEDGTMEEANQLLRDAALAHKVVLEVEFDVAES
HTRA1, Q92743, sequence (Q92743 360-477): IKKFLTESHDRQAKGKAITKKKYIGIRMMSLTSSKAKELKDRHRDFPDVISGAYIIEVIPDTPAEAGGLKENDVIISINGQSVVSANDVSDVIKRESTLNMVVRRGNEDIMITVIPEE
NHERF2_2, Q15599, sequence (Q15599 142-238): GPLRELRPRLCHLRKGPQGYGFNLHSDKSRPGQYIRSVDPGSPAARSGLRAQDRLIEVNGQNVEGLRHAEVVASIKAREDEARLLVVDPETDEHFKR
GRID2IP_1, A4D2P6, sequence (A4D2P6 1-87): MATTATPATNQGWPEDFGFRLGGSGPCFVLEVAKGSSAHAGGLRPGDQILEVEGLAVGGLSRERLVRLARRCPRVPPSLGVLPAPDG
Inadl_2, Q8NI35, sequence (Q8NI35 238-335): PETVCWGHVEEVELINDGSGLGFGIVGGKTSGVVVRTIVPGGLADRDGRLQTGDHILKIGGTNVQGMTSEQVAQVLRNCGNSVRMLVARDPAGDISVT
LDB3, O75112, sequence (O75112 1-94): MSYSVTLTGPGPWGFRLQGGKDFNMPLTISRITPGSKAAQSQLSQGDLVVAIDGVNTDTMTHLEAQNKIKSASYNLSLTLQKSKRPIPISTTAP
MAGI3_2, Q5TCQ9, sequence (Q5TCQ9 398-503): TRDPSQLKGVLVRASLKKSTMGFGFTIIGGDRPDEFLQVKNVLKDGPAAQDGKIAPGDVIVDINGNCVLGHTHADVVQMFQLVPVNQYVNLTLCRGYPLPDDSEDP
MAGI2_2, Q86UL8, sequence (Q86UL8 410-522): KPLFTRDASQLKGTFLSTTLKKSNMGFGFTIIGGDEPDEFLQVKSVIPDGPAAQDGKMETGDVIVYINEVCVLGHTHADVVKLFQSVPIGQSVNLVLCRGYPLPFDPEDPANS
GRASP, Q7Z6J2, sequence (Q7Z6J2 96-193): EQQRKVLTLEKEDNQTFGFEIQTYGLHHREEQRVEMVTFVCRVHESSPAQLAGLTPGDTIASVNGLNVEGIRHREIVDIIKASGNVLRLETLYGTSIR
PARD3_3, Q8TEW0, sequence (Q8TEW0 582-685): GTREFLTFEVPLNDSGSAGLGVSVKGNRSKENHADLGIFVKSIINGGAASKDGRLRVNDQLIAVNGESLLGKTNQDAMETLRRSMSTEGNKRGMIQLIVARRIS
GRIP2_7, Q9C0E4, sequence (Q9C0E4 934-1023): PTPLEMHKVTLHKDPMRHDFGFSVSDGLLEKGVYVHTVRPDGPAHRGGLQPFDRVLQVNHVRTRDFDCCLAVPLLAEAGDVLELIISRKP
MAGI2_5, Q86UL8, sequence (Q86UL8 915-1017): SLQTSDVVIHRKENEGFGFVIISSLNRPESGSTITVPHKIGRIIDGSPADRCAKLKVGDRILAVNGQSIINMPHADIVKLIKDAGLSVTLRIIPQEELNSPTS
DLG4_1, P78352, sequence (P78352 62-152): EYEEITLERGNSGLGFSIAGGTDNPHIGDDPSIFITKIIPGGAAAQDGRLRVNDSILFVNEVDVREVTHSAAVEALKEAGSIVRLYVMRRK
Inadl_6, Q8NI35, sequence (Q8NI35 1058-1167): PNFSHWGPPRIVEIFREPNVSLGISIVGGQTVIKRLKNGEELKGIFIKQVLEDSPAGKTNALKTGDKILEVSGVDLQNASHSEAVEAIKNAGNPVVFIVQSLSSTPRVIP
DLG2_2, Q15700, sequence (Q15700 189-283): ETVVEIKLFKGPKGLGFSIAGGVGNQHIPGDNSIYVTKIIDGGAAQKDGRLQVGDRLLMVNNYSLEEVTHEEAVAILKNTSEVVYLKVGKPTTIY
NHERF4_4, Q86UT5, sequence (Q86UT5 464-550): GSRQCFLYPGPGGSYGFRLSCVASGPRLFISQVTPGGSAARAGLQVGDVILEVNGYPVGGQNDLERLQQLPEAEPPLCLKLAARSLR

MHIQEKGFHV [EPHA6, Q9UF33]
pKd (APBA3_1, O96018): below the threshold | pKd (CARD11, Q9BXL7): below the threshold | pKd (DFNB31_1, Q9P202): below the threshold | pKd (DLG2_2, Q15700): below the threshold | pKd (DLG4_1, P78352): below the threshold | pKd (FRMPD2_2, Q68DX3): below the threshold | pKd (GRASP, Q7Z6J2): below the threshold | pKd (GRID2IP_1, A4D2P6): below the threshold | pKd (GRIP1_3, Q9Y3R0): below the threshold | pKd (GRIP2_4, Q9C0E4): below the threshold | pKd (GRIP2_7, Q9C0E4): 3.93 | pKd (HTRA1, Q92743): 4.61 | pKd (HTRA4, P83105): 3.49 | pKd (Inadl_2, Q8NI35): below the threshold | pKd (Inadl_6, Q8NI35): below the threshold | pKd (LDB3, O75112): below the threshold | pKd (LIMK2, P53671): below the threshold | pKd (LIN7C, Q9NUP9): below the threshold | pKd (MAGI2_2, Q86UL8): below the threshold | pKd (MAGI2_5, Q86UL8): below the threshold | pKd (MAGI3_2, Q5TCQ9): below the threshold | pKd (NHERF2_2, Q15599): below the threshold | pKd (NHERF3_3, Q5T2W1): below the threshold | pKd (NHERF4_4, Q86UT5): below the threshold | pKd (PARD3_3, Q8TEW0): below the threshold | pKd (RAPGEF6, Q8TEU7): below the threshold | pKd (SHANK1, Q9Y566): below the threshold | pKd (SNX27, Q96L92): below the threshold

VLYPREGTEV [FOXI1, Q12951]
pKd (APBA3_1, O96018): below the threshold | pKd (CARD11, Q9BXL7): below the threshold | pKd (DFNB31_1, Q9P202): 3.8 | pKd (DLG2_2, Q15700): 4.45 | pKd (DLG4_1, P78352): 4.48 | pKd (FRMPD2_2, Q68DX3): 3.54 | pKd (GRASP, Q7Z6J2): 4.31 | pKd (GRID2IP_1, A4D2P6): below the threshold | pKd (GRIP1_3, Q9Y3R0): below the threshold | pKd (GRIP2_4, Q9C0E4): below the threshold | pKd (GRIP2_7, Q9C0E4): below the threshold | pKd (HTRA1, Q92743): 4.64 | pKd (HTRA4, P83105): 4.29 | pKd (Inadl_2, Q8NI35): below the threshold | pKd (Inadl_6, Q8NI35): below the threshold | pKd (LDB3, O75112): below the threshold | pKd (LIMK2, P53671): below the threshold | pKd (LIN7C, Q9NUP9): 4.26 | pKd (MAGI2_2, Q86UL8): 3.74 | pKd (MAGI2_5, Q86UL8): 4.09 | pKd (MAGI3_2, Q5TCQ9): 4.52 | pKd (NHERF2_2, Q15599): 3.48 | pKd (NHERF3_3, Q5T2W1): below the threshold | pKd (NHERF4_4, Q86UT5): below the threshold | pKd (PARD3_3, Q8TEW0): below the threshold | pKd (RAPGEF6, Q8TEU7): below the threshold | pKd (SHANK1, Q9Y566): 3.49 | pKd (SNX27, Q96L92): 4.31

GTGYDRKDYV [CLDN3, O15551]
pKd (APBA3_1, O96018): below the threshold | pKd (CARD11, Q9BXL7): below the threshold | pKd (DFNB31_1, Q9P202): below the threshold | pKd (DLG2_2, Q15700): below the threshold | pKd (DLG4_1, P78352): below the threshold | pKd (FRMPD2_2, Q68DX3): below the threshold | pKd (GRASP, Q7Z6J2): below the threshold | pKd (GRID2IP_1, A4D2P6): below the threshold | pKd (GRIP1_3, Q9Y3R0): below the threshold | pKd (GRIP2_4, Q9C0E4): 3.53 | pKd (GRIP2_7, Q9C0E4): below the threshold | pKd (HTRA1, Q92743): 4.14 | pKd (HTRA4, P83105): below the threshold | pKd (Inadl_2, Q8NI35): below the threshold | pKd (Inadl_6, Q8NI35): below the threshold | pKd (LDB3, O75112): below the threshold | pKd (LIMK2, P53671): below the threshold | pKd (LIN7C, Q9NUP9): below the threshold | pKd (MAGI2_2, Q86UL8): below the threshold | pKd (MAGI2_5, Q86UL8): below the threshold | pKd (MAGI3_2, Q5TCQ9): below the threshold | pKd (NHERF2_2, Q15599): 3.6 | pKd (NHERF3_3, Q5T2W1): below the threshold | pKd (NHERF4_4, Q86UT5): below the threshold | pKd (PARD3_3, Q8TEW0): 3.52 | pKd (RAPGEF6, Q8TEU7): below the threshold | pKd (SHANK1, Q9Y566): below the threshold | pKd (SNX27, Q96L92): 3.68

RSSGGDDFWF [KCNV1, Q6PIU1]
pKd (APBA3_1, O96018): below the threshold | pKd (CARD11, Q9BXL7): below the threshold | pKd (DFNB31_1, Q9P202): below the threshold | pKd (DLG2_2, Q15700): below the threshold | pKd (DLG4_1, P78352): below the threshold | pKd (FRMPD2_2, Q68DX3): below the threshold | pKd (GRASP, Q7Z6J2): below the threshold | pKd (GRID2IP_1, A4D2P6): below the threshold | pKd (GRIP1_3, Q9Y3R0): below the threshold | pKd (GRIP2_4, Q9C0E4): below the threshold | pKd (GRIP2_7, Q9C0E4): 4.59 | pKd (HTRA1, Q92743): 4.61 | pKd (HTRA4, P83105): below the threshold | pKd (Inadl_2, Q8NI35): 4.28 | pKd (Inadl_6, Q8NI35): below the threshold | pKd (LDB3, O75112): below the threshold | pKd (LIMK2, P53671): below the threshold | pKd (LIN7C, Q9NUP9): 4.1 | pKd (MAGI2_2, Q86UL8): below the threshold | pKd (MAGI2_5, Q86UL8): below the threshold | pKd (MAGI3_2, Q5TCQ9): below the threshold | pKd (NHERF2_2, Q15599): 4.69 | pKd (NHERF3_3, Q5T2W1): below the threshold | pKd (NHERF4_4, Q86UT5): 4.43 | pKd (PARD3_3, Q8TEW0): 4.97 | pKd (RAPGEF6, Q8TEU7): below the threshold | pKd (SHANK1, Q9Y566): below the threshold | pKd (SNX27, Q96L92): 4.15

RDPPAEWTRV [PTPN18, Q99952]
pKd (APBA3_1, O96018): below the threshold | pKd (CARD11, Q9BXL7): below the threshold | pKd (DFNB31_1, Q9P202): 4.17 | pKd (DLG2_2, Q15700): 4.01 | pKd (DLG4_1, P78352): 4.07 | pKd (FRMPD2_2, Q68DX3): 4 | pKd (GRASP, Q7Z6J2): 4.66 | pKd (GRID2IP_1, A4D2P6): below the threshold | pKd (GRIP1_3, Q9Y3R0): below the threshold | pKd (GRIP2_4, Q9C0E4): below the threshold | pKd (GRIP2_7, Q9C0E4): below the threshold | pKd (HTRA1, Q92743): 4.4 | pKd (HTRA4, P83105): 4.01 | pKd (Inadl_2, Q8NI35): below the threshold | pKd (Inadl_6, Q8NI35): below the threshold | pKd (LDB3, O75112): below the threshold | pKd (LIMK2, P53671): below the threshold | pKd (LIN7C, Q9NUP9): below the threshold | pKd (MAGI2_2, Q86UL8): 4.04 | pKd (MAGI2_5, Q86UL8): 4.72 | pKd (MAGI3_2, Q5TCQ9): 4.27 | pKd (NHERF2_2, Q15599): 4.45 | pKd (NHERF3_3, Q5T2W1): 3.87 | pKd (NHERF4_4, Q86UT5): below the threshold | pKd (PARD3_3, Q8TEW0): 3.54 | pKd (RAPGEF6, Q8TEU7): below the threshold | pKd (SHANK1, Q9Y566): 5.05 | pKd (SNX27, Q96L92): 4.55
